Experimental findings from PMC7857395 (Science (New York, N.y.), 2020) are described below.

In this assay the target is SARS-CoV RBD (SARS-CoV (P59594; strain ), UniProt P59594). Kind of assay: ELISA. The note with it: both partners purified. (In general: ELISA stands for enzyme-linked immunosorbent assay.)

B1: S2M11 human monoclonal antibody (IgG) (antibody, V domains shown)
VH: EVQLVQSGAEVKKPGASVKVSCKASGYTFTGYYMHWVRQAPGQGLEWMGWINPISSGTSYAQTFQGRVTMTSDTSITTAYMELSRLRSDDTAVYYCARAAPFYDFWSGYSYFDYWGQGTLVTVSS
VL: not shown
notes: also called S2M11 IgG; S2M11 mAb; copies: 2 + 2
With B1, the binding result was “no binding”.

B2: S2E12 human monoclonal antibody (IgG) (antibody, V domains shown)
VH: not shown
VL: DIVLTQTPGTLSLSPGERATLSCRASQSVSSSYLAWYQQKPGQAPRLLIYGASSRATGIPDRFSGSGSGTDFTLTISRLEPEDFAVYYCQQYVGLTGWTFGQGTKVEIK
notes: also called S2E12 IgG; S2E12 mAb; copies: 2 + 2
Take B2: the binding result is reported as “no binding”.
